Reference: publication PMC8632718, “Novel Assay Platform to Evaluate Intracellular Killing of Mycobacterium tuberculosis: In Vitro and In Vivo Validation” (Frontiers in Immunology, 2021)
Numbered stars: 1 amine (or outer) side, 2 acyl side, 3 side chain; on linkers, the order of the positions; unused ones are H or OH. Square brackets hold non-standard residues; d marks the D form. Peptide text beside a SMILES is read from it. * marks the point of attachment. Hydrazinoacetyl = O=C(CNN[*:1])[*:2]; Isonicotinoyl = O=C(c1ccncc1)*

Tests used:
MonoMac-6 cells = conditions: 50 µM
[1] = format: in vitro ADME; conditions: rat liver lysosomal homogenate, 37 °C, LC-MS
Method: Next, we examined the enzymatic stability of two peptide conjugates in rat liver lysosomal homogenate (see Supplementary Information 2 for the method description). Peptides were dissolved at 0.025 µg/µl concentration then allowed to react with the lysosomal homogenate. Degradation of the conjugates was fast. […]
1.2 Lysosomal degradation studies
Enzymatic stability of INH-Dhvar4 and INH-Penetratin conjugates were assayed in rat liver lysosomal homogenate (protein content was 16.6 µg/µl). Peptides were dissolved in 0.2 M Sodium acetate buffer (pH=5.03) at 0.025 µg/µl concentration and added to the lysosomal homogenate to reach 1 : 1 protein / peptide ratio (37 °C, 600 rpm vortex) . At different time points (5 min, 30 min, 1 h, 6 h, 24 h) the reaction was stopped by the addition of 5 µl formic acid. Sampled were then measured by LC-MS using a Thermo Scientific Q Exactive Focus Hybrid Quadrupole -Orbitrap Mass Spectrometer (Suppl. Figu re 1). For chromatography, a Wa ters Acquity UPLC BEH C18 (1.7 µ, 150 × 2.1 mm) column was used with a flow rate of 300 µL/min applying a gradient elution from 2% to […]
(1 picture or pasted object on this page, not shown here)

EBC-1 cells = format: cell-based, human; conditions: 10 µM, 3 hrs, fixed, 30 profiles
Method: In addition to the internalization experiments, the surface morphology of INH-peptide-treated and fixed EBC-1 cells was also studied with atomic force microscopy (AFM) ( Supplementary Information 1.3 ). High-resolution imaging of the cell surfaces was performed with a Flex-Axiom AFM system (Nanosurf, Liestal, Switzerland).The representative images and surface roughness of the native and treated cells are shown in Supplementary Figure S2 .
1.3 Membrane integrity evaluation by atomic force microscopy (AFM) […]
High resolution imaging of the surfaces were performed with a Flex-Axiom AFM system (Nanosurf, Liestal, Switzerland) operating in dynamic mode utilizing soft-tapping cantilevers (Tap150-G, BudgetSensors) with nominal force constant of 5 N/m. The recorded images were evaluated with the Gwyddion software. […]
Two cut-off frequencies were chosen with real-space wavelengths of 1 μm and 200 nm. […] Figure 2D,E,F. Scale dependent surface roughness of the cells was determined according to Antonio et al. Mean Rq values are somewhat higher in the peptide and conjugate treated cells, but […]
Supplementary Figure 2. […] The apex area of the cells was selected for imaging with a scan area of 5 μm × 5 μm (512 × 512 pixel resolution), where the cellular curvature has the smallest distortion effect on the recorded height profiles. […]
1.4. […] To quantify […]

CC(C)C[C@H](NC(=O)[C@H](CCCNC(=N)N)NC(=O)[C@H](CCCCN)NC(=O)CNNC(=O)c1ccncc1)C(=O)N[C@@H](Cc1ccccc1)C(=O)N[C@@H](CCCCN)C(=O)N[C@@H](CCCCN)C(=O)N[C@@H](CC(C)C)C(=O)N[C@@H](CC(C)C)C(=O)N[C@@H](Cc1ccccc1)C(=O)N[C@@H](CO)C(=O)N[C@@H](CC(C)C)C(=O)N[C@@H](CCCNC(=N)N)C(=O)N[C@@H](CCCCN)C(=O)N[C@@H](Cc1ccc(O)cc1)C(N)=O [INH-Dhvar4] (Isonicotinoyl-[Hydrazinoacetyl]KRLFKKLLFSLRKY-NH2)
viability of MonoMac-6 cells (MonoMac-6 cells): > 80% | peaks of the intact conjugates after 30 min of incubation ([1]; 0.2 M sodium acetate buffer pH 5.03, 0.025 µg/µl, 1:1 protein/peptide ratio): almost disappeared | most stable fragment (main peak after 24 h of incubation) ([1]; pH 5.03, 0.025 µg/µl): tripeptide (KRL) covalently attached to INH | membrane integrity (AFM surface roughness Rq) (EBC-1 cells): membrane integrity maintained
